Measurements published in patent publication US6303749A, “Agouti and agouti-related peptide analogs” (Amgen Inc., priority 1999, dated 2001).
“And” between values parts separate entries of the source, which are not always exact repeats. Equal entries are not always repeated. Bridge positions count the residues as written; N and C are the ends. Square brackets hold non-standard residues; d marks the D form. Ends that are not written are not given here. Nle = CCCC[C@H](N)C(=O)O; Abu = CC[C@H](N)C(=O)O

B1: peptide of SEQ ID NO:14 (peptide)
peptide: RNSCKPPAPA[Abu][Abu]DP[Abu]ASCQCRFFRSACS[Abu]RVL
modifications: disulfide (positions not given here); also: oxidised to disulfides, pairs not given here
B2: peptide of SEQ ID NO:17 (peptide)
peptide: [Abu][Abu]DPCAS[Abu]QCRFFRSACS[Abu]RVLSLNC
modifications: disulfide (positions not given here); also: oxidised to disulfides, pairs not given here
B3: peptide of SEQ ID NO:18 (peptide)
peptide: C[Abu]DPCAS[Abu]Q[Abu]RFFRSA[Abu]SCRVLSLNC
modifications: disulfide (positions not given here); also: oxidised to disulfides, pairs not given here
B4: Mkd5-AGRP (ligand)
chain: APMEGIRRPDQALLPELPGLGLRAPLKKTTAEQAEEDLLQEAQALAEVLDLQDREPRSSRRCVRLHESCLGQQVPCCDPCATCYCRFFNAFCYCRKLGTAMNPCSRT
B5: peptide of SEQ ID NO:9 (peptide)
peptide: [Abu][Abu]DPCAT[Abu]YCRFFNAFCY[Abu]RKLGTAMNPCSRT
modifications: disulfide (positions not given here); not fully specified (bridges); also: disulfide pairing not given here
B6: peptide of SEQ ID NO:11 (peptide)
peptide: C[Abu]DPCAT[Abu]Y[Abu]RFFNAF[Abu]YCRKLGTAMNPCSRT
modifications: disulfide (positions not given here); also: oxidised to disulfides, pairs not given here
B7: peptide of SEQ ID NO:13 (peptide)
peptide: RNSCKPPAPAC[Abu]DP[Abu]ASCQCRFFRSACSCRVL
modifications: disulfide (positions not given here); not fully specified (bridges); printed as Arg-Asn-Ser-Cys-Lys-Pro-Pro-Ala-Pro-Ala-Cys-Abu-Asp-Pro-Abu-Ala-Ser-Cys-Gln-Cys-Arg-Phe-Phe-Arg-Ser-Ala-Cys-Ser-Cys-Arg-Val-Leu; also: three disulfides, pairing not given here

Tests used:
[1] = molecular target: T1, human melanocortin-3 (MC-3) receptors (Homo sapiens, UniProt P41968); assay: Melanocortin receptor binding assay, 125I-AGRP competition, MC-3; details: Table II; HEK 293 cell membranes; 125I-AGRP 1.10 nM; read-out: hMC3 IC50 (nM) 125I-AGRP
T1 construct: expressed in transfected cells; membrane fraction used
T1 sequence (P41968 whole entry): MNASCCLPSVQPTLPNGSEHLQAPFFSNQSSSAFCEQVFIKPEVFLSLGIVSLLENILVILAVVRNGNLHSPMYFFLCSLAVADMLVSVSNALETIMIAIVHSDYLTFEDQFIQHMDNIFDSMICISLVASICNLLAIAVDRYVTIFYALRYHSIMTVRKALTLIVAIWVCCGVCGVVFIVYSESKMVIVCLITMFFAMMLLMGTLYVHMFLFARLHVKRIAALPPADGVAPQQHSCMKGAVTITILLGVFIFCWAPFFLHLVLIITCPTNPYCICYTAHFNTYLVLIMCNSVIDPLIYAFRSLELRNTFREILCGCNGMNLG

[2] = molecular target: T2, human melanocortin-4 (MC-4) receptors (Homo sapiens, UniProt P32245); format: binding; details: HEK 293 cell membranes; about […] 125I-NDP-α-MSH; 180 minutes at 25 C; read-out: hMC4 IC50 (nM) 125I NDP-MSH
T2 construct: expressed in transfected cells; membrane fraction used
T2 sequence (P32245 whole entry): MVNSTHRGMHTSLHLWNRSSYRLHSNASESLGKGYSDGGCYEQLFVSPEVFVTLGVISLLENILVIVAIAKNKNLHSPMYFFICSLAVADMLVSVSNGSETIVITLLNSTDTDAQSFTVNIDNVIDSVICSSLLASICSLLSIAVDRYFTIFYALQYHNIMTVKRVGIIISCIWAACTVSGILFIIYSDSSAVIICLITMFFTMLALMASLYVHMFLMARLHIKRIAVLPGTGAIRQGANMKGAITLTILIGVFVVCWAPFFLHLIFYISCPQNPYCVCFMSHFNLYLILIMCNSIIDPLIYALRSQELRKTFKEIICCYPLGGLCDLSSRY

[3] = format: binding, human; details: Table II; HEK 293 cell membranes; 125I-AGRP 1.10 nM; read-out: hMC3 IC50 (nM) 125I-AGRP
[4] = molecular target: T1, human melanocortin-3 (MC-3) receptors; assay: Melanocortin receptor binding assay, 125I-NDP-alpha-MSH competition, MC-3; details: HEK 293 cell membranes; about […] 125I-NDP-α-MSH; 180 minutes at 25 C; read-out: hMC3 IC50 (nM) 125I NDP-MSH
[5] = molecular target: T3, human melanocortin-4 (MC-4) receptor (human, UniProt P32245); assay: displacement of 125I-NDP-alpha-MSH, membranes of HEK 293 cells with hMC4 (value column 1)
T3 sequence (P32245 whole entry): as above

[6] = molecular target: T4, human melanocortin-3 (MC-3) receptor (human, UniProt P41968); assay: displacement of 125I-AGRP, membranes of HEK 293 cells with hMC3 (value column 4)
[7] = molecular target: T4, human melanocortin-3 (MC-3) receptor; assay: displacement of 125I-NDP-alpha-MSH, membranes of HEK 293 cells with hMC3 (value column 3)
[8] = molecular target: T3, human melanocortin-4 (MC-4) receptor; assay: displacement of 125I-AGRP, membranes of HEK 293 cells with hMC4 (value column 2; its head prints hMC3)

Molecule	IC50 [1] [nM]	IC50 [2] [nM]	IC50 [3] [nM]	IC50 [4] [nM]	IC50 [5] [nM]	IC50 [6] [nM]	IC50 [7]	IC50 [8] [nM]
HESCLGQQVPC[Abu]DP[Abu]ATCY[Abu]RFFNAF[Abu]YCRKL (cysteine pairing not given here) [SEQ ID NO:5]	> 1000	> 1000	377	> 1000	–	–	–	–
AC[Abu]DP[Abu]AS[Abu]QCRFFRSACSCRVL (cysteine pairing not given here) [SEQ ID NO:16]	> 1000	> 1000	280	> 1000	–	–	–	–
RNSCKPPAPA[Abu][Abu]DP[Abu]ASCQCRFFRSACS[Abu]RVL (cysteine pairing not given here) [SEQ ID NO:14]	> 1000	> 1000	900	> 1000	–	–	–	–
C[Abu]DPCAS[Abu]Q[Abu]RFFRSA[Abu]SCRVLSLNC (cysteine pairing not given here) [SEQ ID NO:18]	> 1000	> 1000	> 1000	> 1000	–	–	–	–
RNSCKPPAPAC[Abu]DP[Abu]ASCQCRFFRSACSCRVL (cysteine pairing not given here) [SEQ ID NO:13]	> 1000	1000	60	> 1000	–	–	–	–
[Abu][Abu]DPCAT[Abu]YCRFFNAFCY[Abu]RKLGTAMNPCSRT (cysteine pairing not given here) [SEQ ID NO:9]	700	600	73	> 1000	–	–	–	–
Cys-Abu-Asp-Pro-Abu-Ala-Thr-Abu-Tyr-Cys-Arg-Phe-Phe-Asn-Ala-Phe-Cys-Tyr-Cys-Arg-Lys-Leu-Gly-Thr-Ala-Met-Asn-Pro-Abu-Ser-Arg-Thr [SEQ ID NO:10]	147	102	15	500	–	–	–	–
HESCLGQQVPC[Abu]DP[Abu]ATCYCRFFNAFCYCRKL (cysteine pairing not given here) [SEQ ID NO:2]	850	200	–	> 1000	–	–	–	–
His-Glu-Ser-Abu-Leu-Gly-Gln-Gln-Val-Pro-Cys-Abu-Asp-Pro-Abu-Ala-Thr-Abu-Tyr-Cys-Arg-Phe-Phe-Asn-Ala-Phe-Cys-Tyr-Cys-Arg-Lys-Leu [SEQ ID NO:4]	90	100	–	850	–	–	–	–
HESCLGQQVP[Abu][Abu]DP[Abu]ATCYCRFFNAFCY[Abu]RKL (cysteine pairing not given here) [SEQ ID NO:3]	> 1000	900	160	> 1000	–	–	–	–
C[Abu]DPCAT[Abu]Y[Abu]RFFNAF[Abu]YCRKLGTAMNPCSRT (cysteine pairing not given here) [SEQ ID NO:11]	> 1000	> 1000	800	> 1000	–	–	–	–
C[Abu]DPCAT[Abu]YCRFFNAFCYCRKLGTAMNPCSRT (cysteine pairing not given here) [SEQ ID NO:8]	400	–	–	–	–	–	–	–
[Abu][Abu]DPCAS[Abu]QCRFFRSACS[Abu]RVLSLNC (cysteine pairing not given here) [SEQ ID NO:17]	> 1000	> 1000	> 1000	> 1000	–	–	–	–
RNS[Abu]KPPAPAC[Abu]DP[Abu]AS[Abu]QCRFFRSACSCRVL (cysteine pairing not given here) [SEQ ID NO:15]	> 1000	800	45	> 1000	–	–	–	–
CRFFNAFC (disulfide 1-8 (inferred)) [peptide of SEQ ID NO:6]	–	–	–	–	> 1000	> 1000	> 1000 nM	–
CRFFGSAC (disulfide 1-8 (inferred)) [peptide of SEQ ID NO:7]	–	–	–	–	> 1000	> 1000	> 1000 nM	–

Molecule	IC50 [1] [nM]	IC50 [2] [nM]	IC50 [3] [nM]	IC50 [4] [nM]	IC50 [5] [nM]	IC50 [6] [nM]	IC50 [7]	IC50 [8] [nM]
B1	–	–	–	–	> 1000	> 1000	> 1000 nM	900
RNS[Abu]KPPAPAC[Abu]DP[Abu]AS[Abu]QCRFFRSACSCRVL (disulfide (positions not given here)) [peptide of SEQ ID NO:15]	–	–	–	–	800	> 1000	> 1000 nM	45
AC[Abu]DP[Abu]AS[Abu]QCRFFRSACSCRVL (disulfide (positions not given here)) [peptide of SEQ ID NO:16]	–	–	–	–	> 1000	> 1000	> 1000 nM	280
B2	–	–	–	–	> 1000	> 1000	> 1000 nM	> 1000
B3	–	–	–	–	> 1000	> 1000	> 1000 nM	> 1000
Ac-[Nle]H[dF]RWK [NDP-alpha-MSH]	–	–	–	–	8	–	0.9 nM and 0.7 nM	–
B4	–	–	–	–	–	0.7	20 nM and 10 nM	–
MRCVRLHESCLGQQVPCCDPCATCYCRFFNAFCYCRKLGTAMNPCSRT [Md65-AGRP]	–	–	–	–	–	–	2 nM	–
HESCLGQQVPC[Abu]DP[Abu]ATCYCRFFNAFCYCRKL (disulfide (positions not given here)) [peptide of SEQ ID NO:2]	–	–	–	–	200	850	> 1000 nM	50
HESCLGQQVP[Abu][Abu]DP[Abu]ATCYCRFFNAFCY[Abu]RKL (disulfide (positions not given here)) [peptide of SEQ ID NO:3]	–	–	–	–	900	> 1000	> 1000 nM	160
HES[Abu]LGQQVPC[Abu]DP[Abu]AT[Abu]YCRFFNAFCYCRKL (disulfide (positions not given here)) [peptide of SEQ ID NO:4]	–	–	–	–	100	90	850 nM	–
HESCLGQQVPC[Abu]DP[Abu]ATCY[Abu]RFFNAF[Abu]YCRKL (disulfide (positions not given here)) [peptide of SEQ ID NO:5]	–	–	–	–	> 1000	> 1000	> 1000 nM	377
B5	–	–	–	–	600	700	> 1000 nM	73
B6	–	–	–	–	> 1000	> 1000	> 1000 nM	800
B7	–	–	–	–	1000	> 1000	> 1000 nM	60
